Laboratory results published in patent US20210380656A1 (ACADEMISCH ZIEKENHUIS LEIDEN H O D N LUMC, published 2021).

T1: HA-1^H, minor histocompatibility antigen encoded by HMHA1 (Rho GTPase-activating protein 45), R139H … (human)
T1 peptide: VLHDDLLEA

B1: HA-1^H TCR M2 (TCR, V domains shown)
Valpha: GENVEQHPSTLSVQEGDSAVIKCTYSDSASNYFPWYKQELGKRPQLIIDIRSNVGEKKDQRIAVTLNKTAKHFSLHITETQPEDSAVYFCAARNSGAGSYQLTFGKGTKLSVIP
Vbeta: DTGVSQNPRHKITKRGQNVTFRCDPISEHNRLYWYRQTLGQGPEFLTYFQNEAQLEKSRLLSDRFSAERPKGSFSTLEIQRTEQGDSAMYLCASLTVQNTEAFFGQGTRLTVV
B2: HA-1^H TCR M7 (TCR, V domains shown)
Valpha: GQQVMQIPQYQHVQEGEDFTTYCNSSTTLSNIQWYKQRPGGHPVFLIQLVKSGEVKKQKRLTFQFGEAKKNSSLHITATQTTDVGTYFCAGNTGGFKTIFGAGTRLFVKA
Vbeta: DTGVSQDPRHKITKRGQNVTFRCDPISEHNRLYWYRQTLGQGPEFLTYFQNEAQLEKSRLLSDRFSAERPKGSFSTLEIQRTEQGDSAMYLCASSLLGNQPQHFGDGTRLSIL
B3: Chimeric HA-1 TCR: M7 TCR alpha chain (TRAV25*01) with M2 TCR beta chain (TRBV7-9) (TCR, V domains shown)
Valpha: GQQVMQIPQYQHVQEGEDFTTYCNSSTTLSNIQWYKQRPGGHPVFLIQLVKSGEVKKQKRLTFQFGEAKKNSSLHITATQTTDVGTYFCAGNTGGFKTIFGAGTRLFVKA
Vbeta: DTGVSQNPRHKITKRGQNVTFRCDPISEHNRLYWYRQTLGQGPEFLTYFQNEAQLEKSRLLSDRFSAERPKGSFSTLEIQRTEQGDSAMYLCASLTVQNTEAFFGQGTRLTVV
B4: HA-1-TCR of clone M2 (M2 TRBV7-9 with M2 TRAV13-1*02) (TCR, V domains shown)
V domain 1: GENVEQHPSTLSVQEGDSAVIKCTYSDSASNYFPWYKQELGKRPQLIIDIRSNVGEKKDQRIAVTLNKTAKHFSLHITETQPEDSAVYFCAARNSGAGSYQLTFGKGTKLSVIP
V domain 2: DTGVSQNPRHKITKRGQNVTFRCDPISEHNRLYWYRQTLGQGPEFLTYFQNEAQLEKSRLLSDRFSAERPKGSFSTLEIQRTEQGDSAMYLCASLTVQNTEAFFGQGTRLTVVE
notes: Expressed on transduced peripheral T cells; also called HA-1^H TCR M2
B5: Chimeric TCR: M2 TRBV7-9 beta chain with M7 TRAV25*01 alpha chain (TCR, V domains shown)
V domain 1: GQQVMQIPQYQHVQEGEDFTTYCNSSTTLSNIQWYKQRPGGHPVFLIQLVKSGEVKKQKRLTFQFGEAKKNSSLHITATQTTDVGTYFCAGNTGGFKTIFGAGTRLFVKA
V domain 2: DTGVSQNPRHKITKRGQNVTFRCDPISEHNRLYWYRQTLGQGPEFLTYFQNEAQLEKSRLLSDRFSAERPKGSFSTLEIQRTEQGDSAMYLCASLTVQNTEAFFGQGTRLTVVE
notes: The entries include the leader
B6: HA-1-TCR of clone M7 (M7 TRBV7-9 with M7 TRAV25*01), unmodified (TCR, V domains shown)
V domain 1: GQQVMQIPQYQHVQEGEDFTTYCNSSTTLSNIQWYKQRPGGHPVFLIQLVKSGEVKKQKRLTFQFGEAKKNSSLHITATQTTDVGTYFCAGNTGGFKTIFGAGTRLFVKA
V domain 2: GVSQDPRHKITKRGQNVTFRCDPISEHNRLYWYRQTLGQGPEFLTYFQNEAQLEKSRLLSDRFSAERPKGSFSTLEIQRTEQGDSAMYLCASSLLGNQPQHFGDGTRLSILE
notes: Expressed on transduced T cells; also called HA-1^H TCR M7; HA-1-TCR WT

Target: T1, HA-1^H, minor histocompatibility …
Assay: multimer staining

**Q.** Does B1 bind?
**A.** recognises

**Q.** Does B2 bind?
**A.** recognises

**Q.** Does B3 bind?
**A.** recognises

target: T2, HA-1 pMHC tetramer (human); assay: HA-1 pMHC tetramer staining of peripheral T cells transduced with the TCR chains, flow cytometry
T2 construct: also called HA-1 tetramer; HA-1-tetramer

**Q.** With B4 as the binder, how does the “MFI of HA-1 pMHC tetramer” value read?
**A.** 24.2 MFI

**Q.** B5 was tested. Which “MFI of HA-1 pMHC tetramer” value did it give?
**A.** 32.6 MFI

**Q.** How did the “MFI of HA-1 pMHC tetramer” value turn out when B6 was run?
**A.** 33.8 MFI
